Experimental data: US20050238649A1

Target: human HER2 (ErbB2) receptor (human) (UniProt P04626)
Assay: cell-based or functional assay

IC50, cell proliferation assay (CellTiter-Glo), BT474 cells [µg ADC/ml]	IC50, cell proliferation assay (CellTiter-Glo), SK-BR-3 cells [µg ADC/ml]	maximum inhibition of cell proliferation of SK-BR-3 cells [%]	Substance
0.04	0.02	–	4D5 Fab-MC-vc-PAB-MMAF, 1.5 MMAF/Ab
–	–	66	murine monoclonal antibody 4D5
